{"source": "the RNAGym collection of RNA variant scans (doi:10.7554/elife.90254)", "parents": {"B1": {"name": "LINE1-full (parent)", "chain": "UACGUAGGUGGUUUUCCCCUGAUAGUGCUAAGGGGGCCUGGAAGUUUGGACUGGGCAGAGCUCAACACAGCGUGGCAAAGUGGCUGUGGCUAGACUGCCUCUCUGGAUUCCUCGUCACUCAGCAGGGCAUCUCUGAGAGAAAUGCC"}}, "data": [{"variants_of": "B1", "assay": "self-cleavage, relative activity (ratio to wild type); higher = more cleavage; in vitro, sequencing; the parent is a self-cleaving ribozyme", "values": [{"variant": "UACGUAGGUGGUUUUCCCCUGAUAGUGCUAAGGGGGCCUGGAAGUUUGGACUGGGCAGAGCUCAACACAGCGUGGCAAAGUGGCUGUGGCUAGACUGCCUCUCUGGAUUCCUCGUCGCUCAGCGGGGCAUCUCUGAGAGAAAUGCC", "self-cleavage": 0.69}, {"variant": "UACGUAGGUGGUUUUCCCCUGAUAGUGCUAAGGGGGCCUGGAAGUUUGGACUGGGCAGAGCUCAACACAGCGUGGCAAAGUGGCUGUGGCUAGACUGCCUCUCUGGAUUCCUCGUCGUUCAGCAGGGCAUCUCUGAGAGAAAUGCC", "self-cleavage": 1.44}, {"variant": "UACGUAGGUGGUUUUCCCCUGAUAGUGCUAAGGGGGCCUGGAAGUUUGGACUGGGCAGAGCUCAACACAGCGUGGCAAAGUGGCUGUGGCUAGACUGCCUCUCUGGAUUCCUCGUCCCUCAGCAGGGCAUCUCUGAGAGAAGUGCC", "self-cleavage": 1.8}, {"variant": "UACGUAGGUGGUUUUCCCCUGAUAGUGCUAAGGGGGCCUGGAAGUUUGGACUGGGCAGAGCUCAACACAGCGUGGCAAAGUGGCUGUGGCUAGACUGCCUCUCUGGAUUCCUCGUCCCUCAGCAGGGCAUCUCUGAGAGAAAUACC", "self-cleavage": 1.79}, {"variant": "UACGUAGGUGGUUUUCCCCUGAUAGUGCUAAGGGGGCCUGGAAGUUUGGACUGGGCAGAGCUCAACACAGCGUGGCAAAGUGGCUGUGGCUAGACUGCCUCUCUGGAUUCCUCGUCCCUCAGCAGGGCAUCUCUGAGAGAAAAGCC", "self-cleavage": 1.38}, {"variant": "UACGUAGGUGGUUUUCCCCUGAUAGUGCUAAGGGGGCCUGGAAGUUUGGACUGGGCAGAGCUCAACACAGCGUGGCAAAGUGGCUGUGGCUAGACUGCCUCUCUGGAUUCCUCGUCCCUCAGCAGGGCACCUCUGAGAGAAAUGCC", "self-cleavage": 2.3}, {"variant": "UACGUAGGUGGUUUUCCCCUGAUAGUGCUAAGGGGGCCUGGAAGUUUGGACUGGGCAGAGCUCAACACAGCGUGGCAAAGUGGCUGUGGCUAGACUGCCUCUCUGGAUUCCUCGUCGCUCAGCAGGGCAUCUCUGAGAGAAAUGCC", "self-cleavage": 1.49}, {"variant": "UACGUAGGUGGUUUUCCCCUGAUAGUGCUAAGGGGGCCUGGAAGUUUGGACUGGGCAGAGCUCAACACAGCGUGGCAAAGUGGCUGUGGCUAGACUGCCUCUCUGGAUUCCUCGUCCCUCAGCAGGGCAUCUCUGAGAGAGAUGCC", "self-cleavage": 2.57}, {"variant": "UACGUAGGUGGUUUUCCCCUGAUAGUGCUAAGGGGGCCUGGAAGUUUGGACUGGGCAGAGCUCAACACAGCGUGGCAAAGUGGCUGUGGCUAGACUGCCUCUCUGGAUUCCUCGUCCCUCAGCAGAGCAUCUCUGAGAGAAAUGCC", "self-cleavage": 1.64}, {"variant": "UACGUAGGUGGUUUUCCCCUGAUAGUGCUAAGGGGGCCUGGAAGUUUGGACUGGGCAGAGCUCAACACAGCGUGGCAAAGUGGCUGUGGCUAGACUGCCUCUCUGGAUUCCUCGUCGCUCAGCAGGGCAUCUCUGAGAGAAGUGCC", "self-cleavage": 1.25}, {"variant": "UACGUAGGUGGUUUUCCCCUGAUAGUGCUAAGGGGGCCUGGAAGUUUGGACUGGGCAGAGCUCAACACAGCGUGGCAAAGUGGCUGUGGCUAGACUGCCUCUCUGGAUUCCUCGUCGCUCAGCAGGACAUCUCUGAGAGAAAUGCC", "self-cleavage": 2}, {"variant": "UACGUAGGUGGUUUUCCCCUGAUAGUGCUAAGGGGGCCUGGAAGUUUGGACUGGGCAGAGCUCAACACAGCGUGGCAAAGUGGCUGUGGCUAGACUGCCUCUCUGGAUUCCUCGUCGCUCAGCAGAGCAUCUCUGAGAGAAAUGCC", "self-cleavage": 1.96}, {"variant": "UACGUAGGUGGUUUUCCCCUGAUAGUGCUAAGGGGGCCUGGAAGUUUGGACUGGGCAGAGCUCAACACAGCGUGGCAAAGUGGCUGUGGCUAGACUGCCUCUCUGGAUUCCUCGUCGCUCAGCAGGGCUUCUCUGAGAGAAAUGCC", "self-cleavage": 1.29}, {"variant": "UACGUAGGUGGUUUUCCCCUGAUAGUGCUAAGGGGGCCUGGAAGUUUGGACUGGGCAGAGCUCAACACAGCGUGGCAAAGUGGCUGUGGCUAGACUGCCUCUCUGGAUUCCUCGUCCCGCAGCAGGGCAUCUCUGAGAGAAAUGCC", "self-cleavage": 2.43}, {"variant": "UACGUAGGUGGUUUUCCCCUGAUAGUGCUAAGGGGGCCUGGAAGUUUGGACUGGGCAGAGCUCAACACAGCGUGGCAAAGUGGCUGUGGCUAGACUGCCUCUCUGGAUUCCUCGUCCCUCAGCAGGGCAUCUCAGAGAGAAAUGCC", "self-cleavage": 1.53}, {"variant": "UACGUAGGUGGUUUUCCCCUGAUAGUGCUAAGGGGGCCUGGAAGUUUGGACUGGGCAGAGCUCAACACAGCGUGGCAAAGUGGCUGUGGCUAGACUGCCUCUCUGGAUUCCUCGUCGCUCGGCAGGGCAUCUCUGAGAGAAAUGCC", "self-cleavage": 1.38}, {"variant": "UACGUAGGUGGUUUUCCCCUGAUAGUGCUAAGGGGGCCUGGAAGUUUGGACUGGGCAGAGCUCAACACAGCGUGGCAAAGUGGCUGUGGCUAGACUGCCUCUCUGGAUUCCUCGUCGCUCCGCAGGGCAUCUCUGAGAGAAAUGCC", "self-cleavage": 1.78}, {"variant": "UACGUAGGUGGUUUUCCCCUGAUAGUGCUAAGGGGGCCUGGAAGUUUGGACUGGGCAGAGCUCAACACAGCGUGGCAAAGUGGCUGUGGCUAGACUGCCUCUCUGGAUUCCUCGUCGCUCUGCAGGGCAUCUCUGAGAGAAAUGCC", "self-cleavage": 1.86}, {"variant": "UACGUAGGUGGUUUUCCCCUGAUAGUGCUAAGGGGGCCUGGAAGUUUGGACUGGGCAGAGCUCAACACAGCGUGGCAAAGUGGCUGUGGCUAGACUGCCUCUCUGGAUUCCUCGUCGCUCAGCAGGGCAUCUCUGAGAGAAAUGUC", "self-cleavage": 1.33}, {"variant": "UACGUAGGUGGUUUUCCCCUGAUAGUGCUAAGGGGGCCUGGAAGUUUGGACUGGGCAGAGCUCAACACAGCGUGGCAAAGUGGCUGUGGCUAGACUGCCUCUCUGGAUUCCUCGUCGCUCAGCAGGGCAUCUCUGAGAGGAAUGCC", "self-cleavage": 1.48}]}]}
